Columns and labels:
Assay in all cases: SPR
[1] = target: AZD8895 (tixagevimab) (human)
[2] = target: AZD1061 (cilgavimab) (human)
AZD8895-TM (human) = target: AZD8895-TM (human)
AZD1061-TM (human) = target: AZD1061-TM (human)

“human neonatal Fc receptor (from UniProt P55899;P61769)” showed a Kd [1] of 272 nM, a Kd [2] of 283 nM and a Kd (AZD8895-TM (human)) of 2400 nM. It also gave a Kd (AZD1061-TM (human)) of 2360 nM.

Reference: article doi:10.1101/2021.08.30.21262666
